A short description of this series: Ni-NTA recovery from HEK293, Coomassie SDS-PAGE. The conditions noted are these: glycan lost; control: wild-type Pfs48/45 6C.

B1: Pfs48/45 6C: S305A (protein)
parent chain: MMLYISAKKAQVAFILYIVLVLRIISGNNDFCKPSSLNSEISGFIGYKCNFSNEGVHNLKPDMRERRSIFCTIHSYFIYDKIRLIIPKKSSSPEFKILPEKCFQKVYTDYENRVETDISELGLIEYEIEENDTNPNYNERTITISPFSPKDIEFFCFCDNTEKVISSIEGRSAMVHVRVLKYPHNILFTNLTNDLFTYLPKTYNESNFVSNVLEVELNDGELFVLACELINKKCFQEGKEKALYKSNKIIYHKNLTIFKAPFYVTSKDVNTECTCKFKNNNYKIVLKPKYEKKVIHGCNFSSNVSSKHTFTDSLDISLVDDSAHISCNVHLSEPKYNHLVGLNCPGDIIPDCFFQVYQPESEELEPSNIVYLDSQINIGDIEYYEDAEGDDKIKLFGIVGSIPKTTSFTCICKKDKKSAYMTVTIDSAYYGFLAKTFIFLIVAILLYI
B1: the expression_or_secretion entry was “decreases”.
